Source: PMC12618078

Assays:
RIF1 = RIF1 (UniProt Q5UIP0); assay: reciprocal co-IP, Western blot; settings: reference: WT 53BP1 (before and 1 h after IR); sites T334
PTIP = PTIP (UniProt Q6ZW49); assay: reciprocal co-IP, Western blot; settings: reference: WT 53BP1 (before and 1 h after IR); sites T334

binding against the reference (RIF1): stronger | binding against the reference (PTIP): stronger
Substance: 53BP1 (from UniProt Q12888) T334A 53BP1 (before and 1 h after IR)
